Data taken from PMC5722948, “A tyrosinase, mTyr-CNK, that is functionally available as a monophenol monooxygenase” (Scientific Reports, 2017).

Experiments:
[1] = substrate: N[C@@H](Cc1ccc(O)c(O)c1)C(=O)O; test: purified protein; type: biochemical, Candidatus Nitrosopumilus koreensis; conditions: diphenolase
[2] = substrate: N[C@@H](Cc1ccc(O)cc1)C(=O)O; test: purified protein; type: biochemical, Candidatus Nitrosopumilus koreensis; conditions: monophenolase
[3] = 50 mM Tris pH 6.0, 0.01 mM CuSO4, 20 °C, substrate range 0.025–0.0625 mM

Protein | Km ([1]; pH 6, 20 °C) | kcat ([1]; pH 6, 20 °C) | Km ([2]; pH 6, 20 °C) | kcat ([2]; pH 6, 20 °C) | Km [1, 3] | kcat [1, 3] | kcat/Km [1, 3] | Km [2, 3] | kcat [2, 3] | kcat/Km [2, 3]
cTyr-CNK (Candidatus Nitrosopumilus koreensis AR1) (protein, core tyrosinase domain, residues 1-293, C-terminal 294-415 removed; His6 tag (pET23b+), E. coli BL21(DE3), Ni-NTA purified) MTRKNAKDFLPDERQRYCNALLTLKQTIEPGHTLSKYDEFVAIHYGVTRRLRNGIPIGDGAHFVPGFLAWHREYLNRFEKAIRTVDSTLSLPYWNWSSGDDTDTTEIFTDDFMGPPGDPNNGNKITSGYFVENNWEVHSELDGGNNGSVLVRDSTLLSSSKLSQVSGYGELAMDAVNGDNDFDSFLPGLEGPHGSIHMWIGGHMTSMTSPNDPIFFLHHANIDRLWSKWQELHPGPENYNPNNDGSYGSRLNDRMWPWDGSEDTTTTRTGTATGISLQGLLPTFSDYDIVTPR | 560 ± 40 µM | 2.05 ± 0.10 s⁻¹ | 1600 ± 650 µM | 2.13 ± 0.79 s⁻¹ | – | – | – | – | – | –
mTyr-CNK (Candidatus Nitrosopumilus koreensis AR1) (protein, mature form, residues 1-303, C-terminal extension 304-415 removed; His6 tag (pET23b+), codon-optimized gene, E. coli BL21(DE3), Ni-NTA purified) MTRKNAKDFLPDERQRYCNALLTLKQTIEPGHTLSKYDEFVAIHYGVTRRLRNGIPIGDGAHFVPGFLAWHREYLNRFEKAIRTVDSTLSLPYWNWSSGDDTDTTEIFTDDFMGPPGDPNNGNKITSGYFVENNWEVHSELDGGNNGSVLVRDSTLLSSSKLSQVSGYGELAMDAVNGDNDFDSFLPGLEGPHGSIHMWIGGHMTSMTSPNDPIFFLHHANIDRLWSKWQELHPGPENYNPNNDGSYGSRLNDRMWPWDGSEDTTTTRTGTATGISLQGLLPTFSDYDIVTPRHVLDNNLTIP | – | – | – | – | 490 ± 40 µM | 0.87 ± 0.07 s⁻¹ | 1810 ± 260 M⁻¹ s⁻¹ | 2120 ± 140 µM | 3.33 ± 0.18 s⁻¹ | 1570 ± 10 M⁻¹ s⁻¹
